Like-named read-outs stand apart in the source and are kept apart here.
Experiments:
[1] = target: mutant Htt exon 1 with 103 polyQ repeats fused to EGFP (UniProt P42858); assay: cell-based or functional assay
[2] = target: T1, mutant Htt exon 1 with 103 polyQ repeats fused to EGFP (UniProt P42858 1-88; P42212 1-238 = GFP); assay: coimmunoprecipitation from 293 cell lysates with anti-Flag Ab, blot with anti-HD1-17
T1 construct: Expressed in 293 cells; Order of pieces follows 'Htt exon 1-EGFP'; also called PQ103
Experimental: The scFvs and IκBα in Triton X-100 cell extracts were precipitated with anti-Flag Ab, and the precipitates were subjected to SDS-PAGE.
Briefly, cells were harvested 24 hours after transfection and lysed by sonication in buffer A (25 mM Hepes, pH 7.4/2.5 mM MgCl₂/50 mM NaCl/1 mM EDTA/1% Triton X-100). After clearing the lysates by centrifugation at 14,300 rpm (Eppendorf microcentrifuge) for 10 minutes at 4° C., 200 μg of each lysate was incubated at 4° C. with rocking for 2 hours with a 40-μl slurry of anti-Flag Ab coupled to protein A beads. The beads were then washed five times in buffer A by using centrifugation at 5,000 rpm, and the complexes were resolved on SDS-PAGE. […] Secondary antibodies conjugated to horseradish peroxidase (HRP) were used to detect the reactive protein bands by enhanced chemiluminescence (Santa Cruz Biotechnology).

[3] = target: mutant Htt exon 1 with 103 polyQ repeats fused to EGFP (UniProt P42858); assay: cell-based or functional assay; remark: listed apart in the source

In the case of “Flag-tagged MW2 scFv expressed in 293 cells”, the SDS-insoluble aggregated Htt, scanned band at the top of the gel (no scFv: 48.8) (arbitrary units) [1] is reported as 54.3 and the increase in mutant Htt-induced TUNEL staining (TUNEL+ cells), 293 cells [1] is reported as 67%.

B1: Flag-tagged IκBα (other, UniProt P25963 1-317, looked up, not shown: small tags and cut ends)
chain: MFQAAERPQEWAMEGPRDGLKKERLLDDRHDSGLDSMKDEEYEQMVKELQEIRLEPQEVPRGSEPWKQQLTEDGDSFLHLAIIHEEKALTMEVIRQVKGDLAFLNFQNNLQQTPLHLAVITNQPEIAEALLGAGCDPELRDFRGNTPLHLACEQGCLASVGVLTQSCTTPHLHSILKATNYNGHTCLHLASIHGYLGIVELLVSLGADVNAQEPCNGRTALHLAVDLQNPDLVSLLLKCGADVNRVTYQGYSPYQLTWGRPSTRIQQQLGQLTLENLQMLPESEDEESYDTESEFTEFTEDELPYDDCVFGGQRLTL
notes: Order of pieces follows the name Flag-IκBα; also called Flag-IκBα
B1: no binding [2].

B2: Flag-tagged MW7 scFv expressed in 293 cells (scFv)
scFv: MDYKDDDDKVAQVKLQESGGGLVQPGGSMKLSCAASGFTFSDAWMDWVRQSPEKGLSGVAEIRSKANNHATYYAESVKGRFTISRDDSKSSVYLQMNSLRAEDTGIYYCIYAGFAYWGQGTTVTVSSGGGGSGGGGSGGGGSDIELTQSPSSLAMSVGQKVTMSCKSSQSLLNSSNQKNYLAWYQQKPGQSPKLLVYFASTRESGVPDRFIGSGSGTDFTLTISSVQAEDLADYFCQQHYSTPWTFGGGTKLEIK
B2 was tested, and the SDS-insoluble aggregated Htt, scanned band at the top of the gel (no scFv: 48.8) (arbitrary units) [3] was 0.2.
